Test results: publication PMC5666606 (The EMBO Journal, 2017)

Experiments:
RBPJ-(53-474) [1] = target: T1, RBPJ-(53-474) (mouse, UniProt P31266 53-474); assay: ITC
RBPJ-(53-474) [2] = target: T1, RBPJ-(53-474); assay: ITC; remark: listed apart in the source

T1 sequence (P31266 53-474): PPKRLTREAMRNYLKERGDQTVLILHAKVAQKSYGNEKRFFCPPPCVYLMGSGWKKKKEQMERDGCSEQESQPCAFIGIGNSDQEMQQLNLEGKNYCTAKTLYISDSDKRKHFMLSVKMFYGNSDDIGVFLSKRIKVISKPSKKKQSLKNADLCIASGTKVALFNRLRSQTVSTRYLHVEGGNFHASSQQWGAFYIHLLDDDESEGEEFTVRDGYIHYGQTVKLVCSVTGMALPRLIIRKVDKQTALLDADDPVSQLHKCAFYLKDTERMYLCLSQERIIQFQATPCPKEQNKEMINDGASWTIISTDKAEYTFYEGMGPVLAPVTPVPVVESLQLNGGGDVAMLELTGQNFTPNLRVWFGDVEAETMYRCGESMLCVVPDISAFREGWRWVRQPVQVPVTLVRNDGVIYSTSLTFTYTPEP

Ka (RBPJ-(53-474) [1]): 2.27e+06 M⁻¹ | Kd (RBPJ-(53-474) [1]): 450 nM | dH (RBPJ-(53-474) [1]): -7.52 kcal/mol | stoichiometry N (RBPJ-(53-474) [2]): 1
B1: L3MBTL3-(31-70) (domain or fragment, human, UniProt Q96JM7 31-70, looked up)
chain: SDLKFRVNEFGALEVITDENEMENVKKATATTTWMVPTAQ
